Measured values from CN111592595A (UNIV NANJING MEDICAL, dated 2020).

B1: 4A3 IgG重组蛋白 (human IgG1) (antibody, V domains shown)
VH: EVQLLESGGGLVQPGGSLRLSCAASGFTFSSYAMSWVRQAPGKGLEWVSSIASSGYYTDYADSVKGRFTISRDNSKNTLYLQMNSLRAEDTAVYYCAKDADSFDYWGQGTLVTVSS
VL: DIQMTQSPSSLSASVGDRVTITCRASQSISSYLNWYQQKPGKAPKLLIYAASYLQSGVPSRFSGSGSGTDFTLTISSLQPEDFATYYCQQAYSAPSTFGQGTKVEIK
B2: 4A3噬菌体 (4A3 scFv displayed on phage) (scFv)
scFv: EVQLLESGGGLVQPGGSLRLSCAASGFTFSSYAMSWVRQAPGKGLEWVSSIASSGYYTDYADSVKGRFTISRDNSKNTLYLQMNSLRAEDTAVYYCAKDADSFDYWGQGTLVTVSSGGGGSGGGGSGGGGSDIQMTQSPSSLSASVGDRVTITCRASQSISSYLNWYQQKPGKAPKLLIYAASYLQSGVPSRFSGSGSGTDFTLTISSLQPEDFATYYCQQAYSAPSTFGQGTKVEIK
notes: also called 4A3抗体; 4A3的噬菌体

Key:
[1] = target: SARS-Cov-2 spike (on lentiviral pseudovirus) (SARS-Cov-2, UniProt P0DTC2 14-1273); test: cell-based or functional assay
SARS-Cov-2-RBD-his蛋白 = SARS-Cov-2-RBD-his蛋白 (SARS-Cov-2, UniProt P0DTC2 319-541)
SARS-Cov-1-RBD-hFc蛋白 = target: T1, SARS-Cov-1-RBD-hFc蛋白 (SARS-Cov-1, UniProt P59594 306-527); test: phage ELISA on coated antigen, anti-M13-HRP detection
T1 construct: domain: RBD

Row | Binder | IC50 of inhibition of pseudovirus infection of ACE2-CHO cells (Luciferase活性) [1] [µg/mL] | Kd (SARS-Cov-2-RBD-his蛋白) [nM] | binding result (SARS-Cov-1-RBD-hFc蛋白)
1 | B1 | 0.28 | 3.62 | –
2 | B2 | – | – | no binding (tested: 5μg/ml coating)
